Measured values as given in publication doi:10.1101/2021.01.14.426688 (bioRxiv, 2021).
Positions count from the first letter of the chain named.

B1: Gfp-IDR_(FtsZ) (Gfp fused to the C-terminal 67 amino acids of E. coli FtsZ, residues 317-383) (domain or fragment, UniProt P0A9A6 317-383, looked up)
chain: MDKRPEITLVTNKQVQQPVMDRYQQHGMAPLTQEQKPVAKVVNDNAPQTAKEPDYLDIPAFLRKQAD
B2: Gfp-IDR_(FtsZ) mut-1 (Ala substitutions at FtsZ positions 352 through 358) (domain or fragment, E. coli, UniProt P0A9A6 317-383, looked up)
chain: B1 chain with K36A, P37A, V38A, K40A, V41A, V42A

Target: ClpXP (ClpX with ClpP protease) (E. coli, UniProt P0A6H1 1-424; P0A6G7 15-207)
Test: ultrafiltration

ClpXP (ClpX with ClpP protease), sequence (P0A6H1 whole entry, chain 1 of 2): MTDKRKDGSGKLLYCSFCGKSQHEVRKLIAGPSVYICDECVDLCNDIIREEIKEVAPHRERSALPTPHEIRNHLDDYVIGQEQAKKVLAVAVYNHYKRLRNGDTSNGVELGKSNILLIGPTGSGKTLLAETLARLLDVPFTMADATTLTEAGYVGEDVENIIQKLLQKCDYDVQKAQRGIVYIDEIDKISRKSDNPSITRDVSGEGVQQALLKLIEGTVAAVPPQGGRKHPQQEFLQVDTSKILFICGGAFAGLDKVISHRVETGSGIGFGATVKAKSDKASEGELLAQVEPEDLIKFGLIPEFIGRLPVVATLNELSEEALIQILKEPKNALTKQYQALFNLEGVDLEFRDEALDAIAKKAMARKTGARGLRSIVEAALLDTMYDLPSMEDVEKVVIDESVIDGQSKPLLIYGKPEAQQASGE
ClpXP (ClpX with ClpP protease), sequence (P0A6G7 15-207, chain 2 of 2): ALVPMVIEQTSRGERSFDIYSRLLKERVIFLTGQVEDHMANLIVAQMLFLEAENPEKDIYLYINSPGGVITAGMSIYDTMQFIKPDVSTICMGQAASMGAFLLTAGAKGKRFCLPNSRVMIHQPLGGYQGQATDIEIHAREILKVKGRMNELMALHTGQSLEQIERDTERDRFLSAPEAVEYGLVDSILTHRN

| Binder | binding result |
| --- | --- |
| B1 | binds |
| B2 | binds |
